In PMC1905944 one finds stoichiometry N data, which are given here for one substance.

Values joined by “and” are separate entries in the source; they are usually repeats but may differ in a detail not shown here. Identical values can stand only once.

The target in assay [1] is full-length HIV-1 WT integrase (HIV-1). The assay can be described thus: cross-linking + SEC; covalent IN oligomers made by chemical cross-linking and separated by size-exclusion chromatography, as previously described [10]; dimers and tetramers recovered.
For assay [2] the target is unchanged. Nature of the assay: cross-linking; IN (5 pmol, 0.5 uM) with the 5'-radiolabelled 38-bp PalA/PalB duplex (1 pmol, 0.1 uM; HIV-1 LTR-LTR junction) and AHDAP 300 uM, 0.05% NP40, 10 mM DTT, 20 mM HEPES pH 7.5, 37 C in the dark, 0 to 60 min; SDS-PAGE and autoradiography; IN oligomers seen bound to DNA.

Take full-length HIV-1 WT integrase (enzyme): the stoichiometry N was 2 and 4 in assay [1]; 2 and 4 in assay [2].

Usually stoichiometry N stands for a count of units in the complex or per binding partner.
